Measured values published in patent US8431531B2, “Methods for stimulating glucagon-like peptide-1(GLP-1) secretion and treatments comprising same” (Campina Nederland Holding B.V., priority 2005, dated 2013).

How the values were obtained:
[1] = plasma; degradation by DPP-IV; cited from earlier work
[2] = target: T1, DPP-IV (Sus scrofa, UniProt P22411); assay: In vitro measurement of DPP-IV activity (Gly-Pro-p-nitroanilide substrate, absorption at 385 nm); type: biochemical; details: Tris buffer pH 8.0
T1 construct: purchased Sigma D-7052
Protocol: DPP-IV activity can be determined by measuring the increase in absorption at 385 nm using Gly-Pro-p-nitroanilide (Sigma G-0513) as DPP-IV substrate. A decrease in DPP-IV activity is a measure for the inhibition.
13.152 mg Gly-Pro-p-nitroanilide (substrate; Sigma G-0513) was dissolved in 1 ml Tris buffer, pH 8.0. DPP-IV (Sigma D-7052) was diluted with Tris buffer, pH 8.0 to 1.1 Unit/ml. The substrate was diluted 50-fold with Tris buffer, pH 8.0. The samples were prepared by diluting a protein hydrolysate to a 1 wt. % protein solution in Tris buffer, pH 8.0. The samples were then serially diluted to obtain a range of sample concentrations. 50 μl of the different serially diluted samples and 50 μl of the diluted substrate were then pipetted in wells of a microtiter plate with 96 wells. Subsequently, 100 μl of the diluted enzyme was pipetted in each well of a plate with 96 wells. Then the increase in absorption at 385 nm was determined and DPP-IV activities at different concentrations of a variety of protein hydrolysates were determined, from which the IC50 (i.e. the concentration of inhibitor (particular protein hydrolysate) that inhibits 50% of the DPP-IV activity) could be derived. […] The degree of hydrolysis was determined using the o-phtaldialdehyde method, which is well known in the art.

[3] = test system: Sodium caseinate from DMV International, NL (unhydrolysed, DH 0%)
[4] = test system: Bipro from Davisco Foods, USA (unhydrolysed, DH 0%)

T1 sequence (P22411 whole entry): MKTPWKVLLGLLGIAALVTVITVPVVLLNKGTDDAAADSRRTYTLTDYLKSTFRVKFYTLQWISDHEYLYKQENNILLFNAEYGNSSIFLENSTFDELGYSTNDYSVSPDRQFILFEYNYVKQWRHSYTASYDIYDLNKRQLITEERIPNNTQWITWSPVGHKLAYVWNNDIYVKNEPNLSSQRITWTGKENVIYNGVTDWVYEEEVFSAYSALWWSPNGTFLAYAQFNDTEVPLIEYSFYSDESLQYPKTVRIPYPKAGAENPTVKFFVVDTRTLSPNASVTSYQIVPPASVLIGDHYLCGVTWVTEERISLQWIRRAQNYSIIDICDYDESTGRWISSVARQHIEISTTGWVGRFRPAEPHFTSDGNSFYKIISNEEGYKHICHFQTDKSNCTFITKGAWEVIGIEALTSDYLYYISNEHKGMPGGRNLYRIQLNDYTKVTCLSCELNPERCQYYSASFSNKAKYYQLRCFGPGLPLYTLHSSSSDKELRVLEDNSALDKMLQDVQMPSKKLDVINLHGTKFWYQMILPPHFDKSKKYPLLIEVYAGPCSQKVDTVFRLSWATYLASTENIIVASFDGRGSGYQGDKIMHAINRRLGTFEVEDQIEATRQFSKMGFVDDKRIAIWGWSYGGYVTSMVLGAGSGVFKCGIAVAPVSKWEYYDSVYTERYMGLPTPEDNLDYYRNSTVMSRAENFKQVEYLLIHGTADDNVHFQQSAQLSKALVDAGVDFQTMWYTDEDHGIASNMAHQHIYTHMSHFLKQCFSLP

GLP-1: 30 amino acid incretin peptide, sequence HAEGTFTSDVSSYLEGQAAKEFIAWLVKGR (SEQ ID NO: 1)
half-life [1]: 1 to 2 min

Sodium caseinate
DPP-IV inhibition by unhydrolysed protein (control, DH 0%) [2]: did not inhibit the enzyme

dipeptidyl peptidase IV (DPP-IV)
DPP-IV activity (Gly-Pro-p-nitroanilide substrate, absorption at 385 nm) [3]: unhydrolysed protein did not inhibit the enzyme | DPP-IV activity (Gly-Pro-p-nitroanilide substrate, absorption at 385 nm) [4]: unhydrolysed protein did not inhibit the enzyme
